Source: US20050119187A1 (BOARD OF SUPERVISORS OF LOUISIANA STATE UNIVERSITY AND …, published 2005)
*1 amine or outer side, *2 acyl side, *3 side chain or, on linkers, in order; H or OH if unused. Where no end group is shown, it is not given here. [ ]: non-standard residue; d: D form. Dbzg = C-alpha,alpha-dibenzylglycine, O=C(C(Cc1ccccc1)(Cc1ccccc1)N[*:1])[*:2]; Dibg = C-alpha,alpha-diisobutylglycine, CC(C)CC(CC(C)C)(N[*:1])C(=O)[*:2]; Dpg = CCCC(N)(CCC)C(=O)O

How the values were obtained:
[1] = molecular target: amyloidogenic peptide Aβ10-35 (UniProt P05067); experiment: cell-based or functional assay
amyloidogenic peptide Aβ10-35, sequence (P05067 681-706): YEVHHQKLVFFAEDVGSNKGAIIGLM

[2] = molecular target: the molecule itself; experiment: preliminary studies, self-aggregation (data not shown)

inhibition of aggregation (amyloid fibril formation) [1] [µM] | Molecule | binding result [2]
5 | AMY-1: Lys-Dibg-Val-Dbzg-Phe-Dpg-(Lys)6-NH2 (peptide) | 
 | KKKKKKK[Dibg]V[Dbzg]F[Dpg]-NH2 (N-terminus assumed; SMILES CCCC(CCC)(NC(=O)[C@H](Cc1ccccc1)NC(=O)C(Cc1ccccc1)(Cc1ccccc1)NC(=O)[C@@H](NC(=O)C(CC(C)C)(CC(C)C)NC(=O)[C@H](CCCCN)NC(=O)[C@H](CCCCN)NC(=O)[C@H](CCCCN)NC(=O)[C@H](CCCCN)NC(=O)[C@H](CCCCN)NC(=O)[C@H](CCCCN)NC(=O)[C@@H](N)CCCCN)C(C)C)C(N)=O, Synthetic beta-strand mimic based on Abeta16-21 (KLVFFA), with the oligolysine stretch at the N-terminus) [AMY-2: (Lys)7-Dibg-Val-Dbzg-Phe-Dpg-NH2] | binds
